Values joined by “and” are separate entries in the source; they are usually repeats but may differ in a detail not shown here. Equal values may be shown once.
Columns and labels:
[1] = biological target: human placental alkaline phosphatase (PLAP, Sigma) (human) (UniProt P05187); test: ELISA on coated hPLAP; mAb 64 ng/ml in PBS, diluted 1:2
[2] = biological target: human placental alkaline phosphatase (PLAP, Sigma) (human) (UniProt P05187); test: ELISA on coated hPLAP; mAb 64 ng/ml in PBS, diluted 1:8
[3] = biological target: human placental alkaline phosphatase (PLAP, Sigma) (human) (UniProt P05187); test: ELISA on coated hPLAP; mAb 64 ng/ml spiked in negative serum, diluted 1:2
[4] = biological target: human placental alkaline phosphatase (PLAP, Sigma) (human) (UniProt P05187); test: ELISA on coated hPLAP; mAb 64 ng/ml spiked in negative serum, diluted 1:4
[5] = biological target: human placental alkaline phosphatase (PLAP, Sigma) (human) (UniProt P05187); test: ELISA on coated hPLAP; row labelled '0' (apparently no sample, background)
[6] = biological target: human placental alkaline phosphatase (PLAP, Sigma) (human) (UniProt P05187); test: ELISA on coated hPLAP; mAb 64 ng/ml in PBS, diluted 1:4
[7] = biological target: human placental alkaline phosphatase (PLAP, Sigma) (human) (UniProt P05187); test: ELISA on coated hPLAP; mAb 64 ng/ml spiked in negative serum, diluted 1:16
[8] = biological target: human placental alkaline phosphatase (PLAP, Sigma) (human) (UniProt P05187); test: ELISA on coated hPLAP; mAb 64 ng/ml in PBS, undiluted
[9] = biological target: human placental alkaline phosphatase (PLAP, Sigma) (human) (UniProt P05187); test: ELISA on coated hPLAP; mAb 64 ng/ml spiked in negative serum, undiluted
[10] = biological target: human placental alkaline phosphatase (PLAP, Sigma) (human) (UniProt P05187); test: ELISA on coated hPLAP; mAb 64 ng/ml in PBS, diluted 1:16
[11] = biological target: human placental alkaline phosphatase (PLAP, Sigma) (human) (UniProt P05187); test: ELISA on coated hPLAP; mAb 64 ng/ml in PBS, diluted 1:64
[12] = biological target: human placental alkaline phosphatase (PLAP, Sigma) (human) (UniProt P05187); test: ELISA on coated hPLAP; mAb 64 ng/ml spiked in negative serum, diluted 1:8
[13] = biological target: human placental alkaline phosphatase (PLAP, Sigma) (human) (UniProt P05187); test: ELISA on coated hPLAP; mAb 64 ng/ml in PBS, diluted 1:32
[14] = biological target: human placental alkaline phosphatase (PLAP, Sigma) (human) (UniProt P05187); test: ELISA on coated hPLAP; mAb 64 ng/ml spiked in negative serum, diluted 1:32
[15] = biological target: human placental alkaline phosphatase (PLAP, Sigma) (human) (UniProt P05187); test: ELISA on coated hPLAP; mAb 64 ng/ml spiked in negative serum, diluted 1:64

Chain of UniProt P05187 (P05187 23-506 limits assumed): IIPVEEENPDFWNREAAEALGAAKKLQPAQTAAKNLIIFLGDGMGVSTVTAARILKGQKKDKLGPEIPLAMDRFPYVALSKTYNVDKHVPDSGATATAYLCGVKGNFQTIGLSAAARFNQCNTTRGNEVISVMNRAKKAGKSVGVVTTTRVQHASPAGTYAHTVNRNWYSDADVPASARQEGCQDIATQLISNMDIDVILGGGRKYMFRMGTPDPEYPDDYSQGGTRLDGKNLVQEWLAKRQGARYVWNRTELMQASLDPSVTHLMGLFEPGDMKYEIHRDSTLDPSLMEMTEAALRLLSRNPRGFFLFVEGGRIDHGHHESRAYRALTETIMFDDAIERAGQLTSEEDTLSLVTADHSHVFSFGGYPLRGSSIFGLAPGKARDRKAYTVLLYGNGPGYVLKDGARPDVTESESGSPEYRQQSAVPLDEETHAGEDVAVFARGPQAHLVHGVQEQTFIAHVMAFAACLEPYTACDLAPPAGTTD

Row | absorbance at 450 nm (absorbance at 450 nm) [1] | absorbance at 450 nm (absorbance at 450 nm) [2] | absorbance at 450 nm (absorbance at 450 nm) [3] | absorbance at 450 nm (absorbance at 450 nm) [4] | absorbance at 450 nm (absorbance at 450 nm) [5] | absorbance at 450 nm (absorbance at 450 nm) [6] | absorbance at 450 nm (absorbance at 450 nm) [7] | absorbance at 450 nm (absorbance at 450 nm) [8] | absorbance at 450 nm (absorbance at 450 nm) [9] | absorbance at 450 nm (absorbance at 450 nm) [10] | absorbance at 450 nm (absorbance at 450 nm) [11] | absorbance at 450 nm (absorbance at 450 nm) [12] | absorbance at 450 nm (absorbance at 450 nm) [13] | absorbance at 450 nm (absorbance at 450 nm) [14] | absorbance at 450 nm (absorbance at 450 nm) [15] | Substance
1 | 0.487 | 0.282 | 0.439 | 0.341 | 0.007 and 0.009 | 0.424 | 0.123 | 0.486 | 0.546 | 0.169 | 0.047 | 0.209 | 0.091 | 0.071 | 0.042 | mouse monoclonal antibody to PLAP (clone 8B6, Sigma Immunochemicals)
2 |  |  |  |  | 0.005 |  |  |  |  |  |  |  |  |  |  | negative control serum (serum of mice injected with saline)

Source: US20030104422A1
